Reference: publication PMC8608799, “The main oxidative inactivation pathway of the plant hormone auxin” (Nature Communications, 2021)

Experiments:
[1] = substrate: O=C(O)CC[C@H](NC(=O)Cc1c[nH]c2ccccc12)C(=O)O; assay: HPLC of oxidised product, Michaelis-Menten; assay type: biochemical, Arabidopsis thaliana; settings: 0.5 mM 2-oxoglutarate, 2 μM Fe(II), 5 mM ascorbate, 50 mM potassium phosphate pH 7.2, 30 °C
[2] = substrate: O=C(O)C[C@H](NC(=O)Cc1c[nH]c2ccccc12)C(=O)O; assay: HPLC of oxidised product, Michaelis-Menten; assay type: biochemical, Arabidopsis thaliana; settings: 0.5 mM 2-oxoglutarate, 2 μM Fe(II), 5 mM ascorbate, 50 mM potassium phosphate pH 7.2, 30 °C

B1: AtDAO1 (Arabidopsis thaliana) (protein)
chain: MGELNGVIIPTIDLEEVSDKILNQKIREASERWGCFRVINHGVSLSLMAEMKKTVIDLFQRPYEVKVRNTDVLLGSGYRAPNEINPYYEALGLYDMASPHAVNTFCDQLEASADQREIMVKYAKAINGLATDLARKLAESYGLVETDFFKEWPSQFRINKYHFKPETVGKLGVQLHTDSGFLTILQDDENVGGLEAMDNSSGTFFPIDPLPNTLAINLGDMATIWSNGRLCNVKHRVQCKEATMRYSIASFLLGPMDTDLEPPSEFVDAEHPRLYKPISHEGVRNIRMTKKLHDGEALKLITHAGLDK
notes: full-length ORF in pCold I, N-terminal His tag kept, E. coli BL21, TALON purified
- Km [1]: 9.4 µM
- Km [2]: 13.5 µM
